Consider 5 molecules from paper PMC10808074, “Regulation of micro- and small-exon retention and other splicing processes by GRP20 for flower development”.

What all share (assay): EMSA; Probes: 400 fmol RNA, 17 ug protein, 1x binding buffer (Molecular Probes E33075 kit), room temp 30 min, 5% native PAGE, SYBR Green; pre-mRNA: 500 ng RNA in 10 mM HEPES, 150 mM NaCl, 3 mM EDTA, 2 mM DTT, 10% glycerol, 1 mM PMSF, room temp 30 min; pH not stated
What all share (conditions): protein: recombinant; tags: N-terminal His6-SUMO
Background: A gel shift assay detects complexes by their altered migration in electrophoresis.

One series addresses T1, GRP20 (Arabidopsis thaliana, UniProt Q7DV38 1-153).
T1 sequence: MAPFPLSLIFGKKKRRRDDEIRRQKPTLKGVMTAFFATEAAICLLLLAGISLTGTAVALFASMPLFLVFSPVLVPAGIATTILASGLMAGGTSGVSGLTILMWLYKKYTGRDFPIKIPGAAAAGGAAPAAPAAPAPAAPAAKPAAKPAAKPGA

Another series has as its target T2, GRP20 (RBDm) (Arabidopsis thaliana, UniProt Q7DV38 1-153, M102A;W103A;Y105A;K106A;K107A).
T2 sequence: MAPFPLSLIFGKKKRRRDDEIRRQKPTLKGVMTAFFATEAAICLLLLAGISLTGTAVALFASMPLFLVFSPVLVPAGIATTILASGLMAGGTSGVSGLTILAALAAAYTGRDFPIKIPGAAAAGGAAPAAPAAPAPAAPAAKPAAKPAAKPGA

The target of a further series is T3, GRP20ΔHDR (Arabidopsis thaliana, UniProt Q7DV38 1-118).
T3 sequence: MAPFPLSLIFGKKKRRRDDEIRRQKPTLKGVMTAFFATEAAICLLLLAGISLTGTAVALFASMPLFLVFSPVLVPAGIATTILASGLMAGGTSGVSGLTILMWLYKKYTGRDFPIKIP

A further series addresses T4, GRP20ΔRBD (Arabidopsis thaliana, UniProt Q7DV38 1-153, del92-115).
T4 sequence: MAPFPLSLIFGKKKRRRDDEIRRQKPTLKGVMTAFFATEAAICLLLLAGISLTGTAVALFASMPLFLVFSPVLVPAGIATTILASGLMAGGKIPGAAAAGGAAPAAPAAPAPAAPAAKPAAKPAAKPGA

B1: AP1m-probe (ssRNA)
RNA: AUGAUAAUGCC
With B1, in the series with GRP20, the binding result was “no binding”.

B2: P1 (GA-rich consensus ES_C1) (ssRNA)
RNA: GAAGAAGAAGAAG
B2: the binding result is “no binding” with GRP20 (RBDm), “binds” with GRP20, “binds” with GRP20ΔHDR and “no binding” with GRP20ΔRBD.

B3: P3 (A3SS) (ssRNA)
RNA: AUAUAUCUUU
In the case of B3, the binding result with GRP20 is listed as “binds”.

B4: P2 (ES_C2) (ssRNA)
RNA: UUGAUUAUGU
Regarding B4, the binding result in the series with GRP20 is “binds”.

B5: AP1-probe (ssRNA)
RNA: AGGAGAAGGCC
Take B5: the binding result in the series with GRP20 is reported as “binds”.
